Assay results published in article PMC509406.
Each block holds one substance with its values, some of them ahead of it.

Columns and labels:
[1] = target: rabbit actin (Cytoskeleton, catalog #AKL95) (rabbit) (UniProt P68135)
emerin (Homo sapiens) = emerin (Homo sapiens) (UniProt P50402); conditions: cited from earlier work
[2] = target: rabbit actin (Cytoskeleton, catalog #AKL95) (rabbit) (UniProt P68135); remark: listed apart in the source
[3] = target: F-actin (Oryctolagus cuniculus) (UniProt P68135); conditions: cited from earlier work

Chain of tropomodulin (P28289 whole entry): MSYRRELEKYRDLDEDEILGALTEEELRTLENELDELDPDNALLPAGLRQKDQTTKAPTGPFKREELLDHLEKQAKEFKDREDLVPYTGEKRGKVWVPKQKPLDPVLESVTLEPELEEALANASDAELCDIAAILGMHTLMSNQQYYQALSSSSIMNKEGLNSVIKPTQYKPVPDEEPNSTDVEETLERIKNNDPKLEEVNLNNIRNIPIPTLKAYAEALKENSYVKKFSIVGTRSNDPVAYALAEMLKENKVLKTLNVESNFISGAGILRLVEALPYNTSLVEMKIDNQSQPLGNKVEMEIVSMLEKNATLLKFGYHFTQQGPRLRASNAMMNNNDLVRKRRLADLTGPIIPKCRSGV
Chain of LAP2β (P42167 whole entry): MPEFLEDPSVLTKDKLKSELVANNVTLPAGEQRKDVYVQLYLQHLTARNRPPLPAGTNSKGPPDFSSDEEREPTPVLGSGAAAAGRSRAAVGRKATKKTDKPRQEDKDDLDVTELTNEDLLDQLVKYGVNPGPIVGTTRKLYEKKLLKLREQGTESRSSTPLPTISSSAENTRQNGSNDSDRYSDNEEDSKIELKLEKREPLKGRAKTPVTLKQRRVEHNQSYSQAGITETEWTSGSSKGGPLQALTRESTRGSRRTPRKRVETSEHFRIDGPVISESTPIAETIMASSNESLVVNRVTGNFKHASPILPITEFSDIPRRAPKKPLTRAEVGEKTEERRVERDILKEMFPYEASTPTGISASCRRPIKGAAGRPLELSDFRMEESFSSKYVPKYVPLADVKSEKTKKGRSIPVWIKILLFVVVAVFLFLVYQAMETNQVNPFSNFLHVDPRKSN
Chain of emerin (Homo sapiens) (P50402 whole entry): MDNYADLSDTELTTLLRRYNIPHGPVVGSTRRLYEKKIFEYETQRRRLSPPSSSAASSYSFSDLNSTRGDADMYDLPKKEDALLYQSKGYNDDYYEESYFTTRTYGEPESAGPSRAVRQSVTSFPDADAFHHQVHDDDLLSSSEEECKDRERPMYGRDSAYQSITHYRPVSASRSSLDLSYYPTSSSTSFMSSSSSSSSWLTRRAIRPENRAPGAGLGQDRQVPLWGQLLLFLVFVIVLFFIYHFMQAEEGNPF

actin polymerization assays (data not shown), activity against emerin (fold less active than emerin) [1]: 20
Substance: LAP2β (from UniProt P42167 1-454) (natural protein)

Substance: nesprin-1α (from UniProt Q8NF91)
Kd (emerin (Homo sapiens)): 4 nM

length of green (pointed-end growth) segments on rhodamine–phalloidin filaments capped with capping protein, 1 μM tropomodulin [2]: 0.09 μm | length of growing (green) segments on filaments formed from gelsolin–actin seeds, 1 μM tropomodulin [2]: 0.1 μm
Substance: tropomodulin (from UniProt P28289 1-359) (natural protein)

Substance: tropomodulin (from UniProt P28289)
Kd [3]: 110 nM
